The results in this text go back to paper PMC12051018, “Purification and characterization of a thermophilic NAD ^+‐dependent lactate dehydrogenase from Moorella thermoacetica” (FEBS Open Bio, 2025).

Substrate in data set [1]: CC(=O)C(=O)O
The experiment in a line: purified protein. The following applies: 0.5 mM NADH, 50 mM Tris/HCl pH 8, 10 mM NaCl, 4 mM DTE, 65 °C, anoxic. It counts as biochemical, Neomoorella thermoacetica.

Substrate in data set [2]: C[C@H](O)C(=O)O
The data set is described as follows: purified protein. The following applies: 2 mM NAD+, 50 mM Tris/HCl pH 8, 10 mM NaCl, 4 mM DTE, 65 °C, anoxic. It counts as biochemical, Neomoorella thermoacetica.

Substrate in data set [3]: NC(=O)C1=CN([C@@H]2O[C@H](COP(=O)(O)OP(=O)(O)OC[C@H]3O[C@@H](n4cnc5c(N)ncnc54)[C@H](O)[C@@H]3O)[C@@H](O)[C@H]2O)C=CC1
The experiment in a line: purified protein. It counts as biochemical, Neomoorella thermoacetica. The note with it: 1 mM pyruvate, 50 mM Tris/HCl pH 8, 10 mM NaCl, 4 mM DTE, 65 °C, anoxic, varied: cofactor.

Substrate in data set [4]: NC(=O)c1ccc[n+]([C@@H]2O[C@H](COP(=O)(O)OP(=O)(O)OC[C@H]3O[C@@H](n4cnc5c(N)ncnc54)[C@H](O)[C@@H]3O)[C@@H](O)[C@H]2O)c1
The experiment in a line: purified protein. It counts as biochemical, Neomoorella thermoacetica. The note with it: 20 mM L-lactate, 50 mM Tris/HCl pH 8, 10 mM NaCl, 4 mM DTE, 65 °C, anoxic, varied: cofactor.

Data set [5] concerns the molecule itself. The data set is described as follows: SEC; calibrated Superose 6 column, buffer 4 (50 mM Tris/HCl pH 7.5, 150 mM NaCl, 20 mM MgSO4, 20% glycerol, 4 mM DTE, 4 uM resazurin), size standards aprotinin, carbonic anhydrase, ovalbumin, conalbumin; native size 60 kDa against a 34 kDa monomer.

B1: LDH from M. thermoacetica (Moorella thermoacetica ATCC 39073) (protein)
chain: MGLQGPAKVAIIGTGYVGSSTAFALLFSPLVKEMVLVDVNHAKAEGEAMDLAHAATLIRPVEVYAGRPADCAGSRIVIFTAGANQQPGQTRLDLIHRNTAIVRQALPEILHYCPEALVLMVANPVDILTYVAWKISGLPENRVLGSGTVLDSARFRHLLSRHYRVDPRNIHAYVIGEHGDTEVPVWSLANVAGVDLEEFYLMDGMREEEAFRVEISHQVREAAYEIIERKGVTSYGVALALSRIIECILRNEHSVLTISSVIRDLYGIDGEVALSLPCLVGNEGREKVLAIPLVAREKAALKHSATTLQQLIAQLSL
notes: native full-length, purified from lactate-grown cells; native 60 kDa, dimer
For the protein B1, the Michaelis-Menten constant (Km) – broadly, the substrate concentration at which the rate is half of its maximum – is 1000 µM in data set [1], 20000 µM in data set [2], 100 µM in data set [3] and 500 µM in data set [4].

B2: NAD+-dependent lactate dehydrogenase from Moorella thermoacetica (enzyme, Moorella thermoacetica (DSM 521), UniProt Q2RHG3 1-317, looked up)
chain: MGLQGPAKVAIIGTGYVGSSTAFALLFSPLVKEMVLVDVNHAKAEGEAMDLAHAATLIRPVEVYAGRPADCAGSRIVIFTAGANQQPGQTRLDLIHRNTAIVRQALPEILHYCPEALVLMVANPVDILTYVAWKISGLPENRVLGSGTVLDSARFRHLLSRHYRVDPRNIHAYVIGEHGDTEVPVWSLANVAGVDLEEFYLMDGMREEEAFRVEISHQVREAAYEIIERKGVTSYGVALALSRIIECILRNEHSVLTISSVIRDLYGIDGEVALSLPCLVGNEGREKVLAIPLVAREKAALKHSATTLQQLIAQLSL
notes: L-lactate dehydrogenase of Moorella thermoacetica DSM 521, product of the ldh gene (954 bp, predicted mass 34.6 kDa), identified by peptide mass fingerprinting; Native enzyme purified from the organism; on SDS-PAGE about 34 kDa, which fits the predicted monomer; also called LDH; gene product of the ldh gene
Consider B2, for which the stoichiometry N – broadly, the number of molecules, sites or subunits per partner or assembly – in data set [5] stood at 2.
